Measured values published in the supplement of paper PMC12764529.
± gives the half width of the 95% confidence interval.

Experiments:
[1] = folding stability dG unfold (combined trypsin and chymotrypsin); higher = more stable
Summary of the method: (§1)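 Only designs with AlphaFold2 dimer inter-PAE above 15 were retained; each was a mini-protein under 80 residues with no cysteine, in a PA-tagged cDNA display construct. After digestion with trypsin and chymotrypsin and sequencing, K50 was inferred by Bayesian fitting of counts, and unfolding free energy was derived per protease or combined against a sequence-predicted unfolded-state K50 and a shared folded-state K50.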

[2] = folding stability dG unfold from trypsin proteolysis; higher = more stable
Summary of the method: as §1

[3] = folding stability dG unfold from chymotrypsin proteolysis; higher = more stable
Summary of the method: as §1

Sequence | folding stability dG unfold [1] [kcal/mol] | folding stability dG unfold [2] [kcal/mol] | folding stability dG unfold [3] [kcal/mol]
SAGEIAEYIAEYLAQEPGFQDVEVNIKITDIEPPPNGYMYHKIDIHVRVRNPDDGKPREVNFDITFPMPSAG [r5_176_TrROS] | 1.7 ± 0.17 | 1.1 ± 0.084 | 1.83 ± 0.068
SAGGSAGGGYELRVTVYDPRTGKPVAEATFTATSPEEAEARFEEIRRALPPEYLVFAEIRPVPESAGGSAGG [r6_688_TrMRF] | 5.25 ± 0.11 | 4.94 ± 0.38 | 5.19 ± 0.13
SIEFKEGQWFPIREIDNNHIEWKHNNEPYKIPPDEIDEPGDWIRITNGRIPEIRPPPPPPVDPEDAKKKKSA [r9_842_TrROS] | 3.51 ± 0.33 | 2.6 ± 0.32 | 4.12 ± 0.32
SAGGSAGGSAGSPVSNPEGGTITNTETLPDGKTIVNTQTIDPSKPKTTTSTTVLDPNGNAVSAGGSAGGSAG [r3_433_JUSTAS] | 1.27 ± 0.13 | 0.894 ± 0.053 | 1.55 ± 0.045
SAGGSAGGSAGGGPSSMVTVETKEELLTLPNGEKLIKTTTTTKTPTATTTTTTVLPAELLSAGGSAGGSAGG [r7_682_JUSTAS] | 0.515 ± 0.2 | 0.0664 ± 0.063 | 0.561 ± 0.068
SAGGSAMKITLKTKDGKEIEIEVEEKTNENGEKYLVLKIKDKKTNKEYTIVMSKEELEELLKKLLSSAGGSA [r15_92_TrROS_Hall] | 5.55 ± 0.17 | 4.33 ± 0.21 | 5.48 ± 0.11
SAGGSAGGSSTTPVTITVPESILDEIKKKAEELGIKVEVEIKESPENKKYATVTIEIPENVELSAGGSAGGS [r12_653_JUSTAS] | 0.509 ± 0.14 | 0.935 ± 0.081 | -0.248 ± 0.25
SAGGSAGGSDDDDAKKAMEQMKPPPIPIKIQVKIEYDPSLGWLKVEIHFFGFGLRITGTIPIDSAGGSAGGS [r20_230_TrROS] | 4.08 ± 0.48 | 3.33 ± 0.16 | 4.56 ± 0.31
SAGGMKTSAEELVERLKKELEAKGLKPKEVKKLPDGSLLVEFEEDVVVYIDAKTGTVTVLTPEEYEKLSAGG [r13_717_JUSTAS] | 2.4 ± 0.14 | 1.7 ± 0.12 | 2.68 ± 0.05
SASKKPKLIIVDIVIKPEELKKMKPEELIEKILKELGIPKEKDVKIDLFLEPVELDGEEYYIIPALITNSAG [r14_334_TrMRF] | 1.24 ± 0.28 | 1.11 ± 0.13 | 1.08 ± 0.14
SAGGSAGGSAMRINIKLPGVETESVEVDPEKGMITARLKFPEGRKVEISFFPDGNVKIHPVSAGGSAGGSAG [r3_348_TrROS] | 0.898 ± 0.11 | 1.14 ± 0.05 | 0.751 ± 0.066
SMIKIKVVEKKDGKYKIKIENKKTGKTFEFEFDTKEEAEEAEKNPGKTIYLSEEALKKLKKENITKVEKVSA [r9_390_TrROS_Hall] | 1.11 ± 0.15 | 0.442 ± 0.065 | 1.24 ± 0.087
SAGGSDVEIEVFENAIIITIPLDLDNGKGETVEVRIIAPFTPDGRPIFRIEVINPDSDEVVTFTFPSAGGSA [r2_484_TrMRF] | 2.71 ± 0.068 | 2.66 ± 0.081 | 2.766 ± 0.017
SDKIIIPIYLPPGQDPDEIKNEIKWFARELWDKLGLPPNVKVEIEPRPYPEGYRRYMITIRLGGKEITIWSA [r9_776_TrROS] | 3.34 ± 0.22 | 3.08 ± 0.1 | 3.6 ± 0.053
SAGGMKINPKVFGNYVLVEVENPETGSRILKLVEFNPGPKTATVKVFYIDPNGKPTLLEEKTFSLPDLSAGG [r13_768_TrMRF] | 2.32 ± 0.071 | 1.36 ± 0.018 | 2.736 ± 0.025
SAGGSAGGSAGGELKLLSVEEGPNETYTVSSSDGKLTVYTKPPDGSWKSTSLPLEPELLSAGGSAGGSAGGS [r10_99_JUSTAS] | 0.194 ± 0.1 | -0.277 ± 0.057 | 0.317 ± 0.14
SAGMKIVEIEKKEDGTVKIKIEVNGEEKEIEVKVGETITLPDGSEIEVLEDGTIKVRPLPEPEVEEEESAGG [r19_17_TrROS_Hall] | 2.64 ± 0.26 | 3.24 ± 0.39 | 2 ± 0.17
SAGGSAGGSVESATTTITITASLTPEEVEEIIEELKKKGLNVKKVEIEREPETGSVTITVTVNPSAGGSAGG [r6_514_JUSTAS] | 3.14 ± 0.093 | 3.2 ± 0.1 | 2.92 ± 0.075
SMITIEINVGNKKYTVEIVPEKGIIKITDPNGTPIGEGEIKPDSIDITLTKPNTDETYKFTFPIPPESLPSA [r9_963_JUSTAS] | 2.69 ± 0.18 | 2.29 ± 0.1 | 3.04 ± 0.12
SAGGSAGPALEIAKALTELYGAEEVTILDVHPDGYVHLHVRAVDYDDGEPVERELDVIFPIAPDDGSAGGSA [r15_646_TrMRF] | 1.18 ± 0.11 | 0.164 ± 0.06 | 1.52 ± 0.037
SAGGSAMEIKTLETKTVKTEKLPDGSTKVTTTYKTVDPSGGKTSNYIKTTLYAPDGKKTSTEVKEKSAGGSA [r15_758_JUSTAS] | 0.773 ± 0.1 | 0.355 ± 0.048 | 1.03 ± 0.098
